This note sets out measurements from paper PMC5490006 (Nature Communications, 2017).

What all share (settings): both partners purified
Test [1] has as its target T1, Mcm6 (budding yeast, UniProt P53091 1-1017).
T1 construct: Mcm6, subunit of the budding yeast MCM (Mcm2-7), expressed as an individual subunit; called Mcm6 fl and the full-length protein; also called Mcm6 fl; full-length Mcm6; source: E. coli, purified
The test is described as follows: co-IP; purified Mcm2-7 subunits (0.5 μM) individually incubated with purified Cdt1 (0.5 μM) or buffer, room temperature 60 min, buffer A/2 mM 2-mercaptoethanol; immunoprecipitation with polyclonal anti-Cdt1 antibody on protein A sepharose, 2 h at 4 °C; SDS-PAGE, Coomassie.

The target in test [2] is T2, Mcm6 tagged with GFP-FLAG, within an MCM-GFP,FLAG–Cdt1 complex (budding yeast, UniProt P53091 1-1017).
T2 construct: Mcm6, budding yeast MCM subunit; also called Mcm6-GFP-FLAG; source: purified MCM-GFP,FLAG-Cdt1 complex; not shown: GFP, C-terminal, kept; FLAG, C-terminal, kept
The test is described as follows: cross-linking; MCM-GFP,FLAG-Cdt1 complexes (20 μg) crosslinked with 25 μM BS3, 30 min room temperature, buffer B; denatured with SDS; immunoprecipitation with anti-FLAG beads under denaturing conditions; western blot against Cdt1.

Test [3] deals with T3, Mcm6 within purified Cdt1–MCM complexes (budding yeast, UniProt P53091 1-1017).
T3 construct: Mcm6, yeast MCM subunit, as part of the Cdt1-MCM complex; source: purified Cdt1-MCM complex
The experiment in a line: negative-stain electron microscopy; single-particle EM of the Cdt1-MCM complex, apo and with ATPγS, 2% uranyl formate; 3D reconstruction (20.4 and 18.0 Å) with docking of MCM atomic structures and of the Cdt1 NM crystal structure.

Test [4] addresses T4, Mcm2 (budding yeast, UniProt P29469 1-868).
T4 construct: Mcm2, subunit of the budding yeast MCM (Mcm2-7), expressed as an individual subunit; source: E. coli, purified
T4 sequence (looked up): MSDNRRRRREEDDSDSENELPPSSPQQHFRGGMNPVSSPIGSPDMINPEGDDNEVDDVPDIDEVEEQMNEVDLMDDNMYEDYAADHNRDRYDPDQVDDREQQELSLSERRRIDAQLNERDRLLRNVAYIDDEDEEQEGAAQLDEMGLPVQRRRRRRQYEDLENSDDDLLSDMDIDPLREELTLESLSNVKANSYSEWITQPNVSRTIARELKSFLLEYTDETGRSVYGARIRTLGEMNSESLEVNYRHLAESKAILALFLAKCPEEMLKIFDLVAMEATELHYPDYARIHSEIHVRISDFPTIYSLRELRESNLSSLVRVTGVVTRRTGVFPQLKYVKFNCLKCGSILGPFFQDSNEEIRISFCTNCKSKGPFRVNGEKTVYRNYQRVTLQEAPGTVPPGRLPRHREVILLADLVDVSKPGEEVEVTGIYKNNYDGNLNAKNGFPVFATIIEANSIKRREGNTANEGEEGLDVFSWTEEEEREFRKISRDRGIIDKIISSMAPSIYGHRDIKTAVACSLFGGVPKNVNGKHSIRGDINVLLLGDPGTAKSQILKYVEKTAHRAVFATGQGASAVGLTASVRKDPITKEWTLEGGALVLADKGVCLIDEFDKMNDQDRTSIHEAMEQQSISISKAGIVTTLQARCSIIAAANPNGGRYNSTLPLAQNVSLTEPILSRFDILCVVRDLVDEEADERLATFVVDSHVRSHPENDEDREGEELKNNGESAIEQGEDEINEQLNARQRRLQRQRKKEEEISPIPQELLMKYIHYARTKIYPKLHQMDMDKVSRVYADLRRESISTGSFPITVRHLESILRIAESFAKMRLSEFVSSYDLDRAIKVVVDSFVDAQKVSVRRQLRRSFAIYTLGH
The test is described as follows: pull-down; Cdt1-His-SUMO fragments held on Ni-NTA magnetic beads, Mcm2 or Mcm6 in solution; 10 μg of each protein, buffer B (25 mM Hepes-KOH pH 7.6, 0.02% NP-40, 10% glycerol, 0.1 M K glutamate), 60 min at 4 °C; Coomassie.

Test [5] addresses T1, Mcm6. Described as above.
Test [6] concerns the target T5, Mcm3 (budding yeast, UniProt P24279 1-971).
T5 construct: Mcm3, subunit of the budding yeast MCM (Mcm2-7), expressed as an individual subunit; source: E. coli, purified
The experiment in a line: SEC; 10 μg of each Mcm subunit combined as pairs 3/7, 4/7 and 2/6, dialysed against buffer A, fractionated over Superdex 200 PC 3.2/30 in buffer A; fractions with the dimers pooled. In general terms: SEC sorts molecules by how far they enter the pores of the column.

In test [7] the target is T6, Mcm4 (budding yeast, UniProt P30665 1-933).
T6 construct: Mcm4, subunit of the budding yeast MCM (Mcm2-7), expressed as an individual subunit; source: E. coli, purified
T6 sequence (looked up): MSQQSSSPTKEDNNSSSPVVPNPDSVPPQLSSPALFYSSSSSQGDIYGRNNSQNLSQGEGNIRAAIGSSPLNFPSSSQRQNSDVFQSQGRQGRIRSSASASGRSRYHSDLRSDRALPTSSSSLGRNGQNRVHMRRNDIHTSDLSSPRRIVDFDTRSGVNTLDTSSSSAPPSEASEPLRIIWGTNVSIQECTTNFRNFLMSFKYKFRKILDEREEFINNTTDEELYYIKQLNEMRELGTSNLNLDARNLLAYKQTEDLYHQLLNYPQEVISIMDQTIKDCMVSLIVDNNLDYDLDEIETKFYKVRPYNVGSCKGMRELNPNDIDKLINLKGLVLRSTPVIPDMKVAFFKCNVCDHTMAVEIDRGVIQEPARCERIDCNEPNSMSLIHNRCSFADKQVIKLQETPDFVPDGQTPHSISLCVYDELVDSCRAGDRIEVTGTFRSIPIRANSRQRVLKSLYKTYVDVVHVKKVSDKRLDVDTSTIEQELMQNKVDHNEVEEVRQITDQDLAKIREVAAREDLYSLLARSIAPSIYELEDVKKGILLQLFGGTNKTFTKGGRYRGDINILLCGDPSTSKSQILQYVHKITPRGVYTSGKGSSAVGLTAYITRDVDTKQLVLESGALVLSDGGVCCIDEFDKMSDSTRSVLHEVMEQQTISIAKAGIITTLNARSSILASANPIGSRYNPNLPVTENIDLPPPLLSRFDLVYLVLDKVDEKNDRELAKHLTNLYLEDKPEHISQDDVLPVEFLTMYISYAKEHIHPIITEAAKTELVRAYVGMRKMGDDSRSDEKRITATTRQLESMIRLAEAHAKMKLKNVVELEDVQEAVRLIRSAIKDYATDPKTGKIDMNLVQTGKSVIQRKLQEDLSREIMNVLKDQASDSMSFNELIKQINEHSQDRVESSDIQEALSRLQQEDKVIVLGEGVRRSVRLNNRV
The description is as above.

T1 sequence (P53091 whole entry): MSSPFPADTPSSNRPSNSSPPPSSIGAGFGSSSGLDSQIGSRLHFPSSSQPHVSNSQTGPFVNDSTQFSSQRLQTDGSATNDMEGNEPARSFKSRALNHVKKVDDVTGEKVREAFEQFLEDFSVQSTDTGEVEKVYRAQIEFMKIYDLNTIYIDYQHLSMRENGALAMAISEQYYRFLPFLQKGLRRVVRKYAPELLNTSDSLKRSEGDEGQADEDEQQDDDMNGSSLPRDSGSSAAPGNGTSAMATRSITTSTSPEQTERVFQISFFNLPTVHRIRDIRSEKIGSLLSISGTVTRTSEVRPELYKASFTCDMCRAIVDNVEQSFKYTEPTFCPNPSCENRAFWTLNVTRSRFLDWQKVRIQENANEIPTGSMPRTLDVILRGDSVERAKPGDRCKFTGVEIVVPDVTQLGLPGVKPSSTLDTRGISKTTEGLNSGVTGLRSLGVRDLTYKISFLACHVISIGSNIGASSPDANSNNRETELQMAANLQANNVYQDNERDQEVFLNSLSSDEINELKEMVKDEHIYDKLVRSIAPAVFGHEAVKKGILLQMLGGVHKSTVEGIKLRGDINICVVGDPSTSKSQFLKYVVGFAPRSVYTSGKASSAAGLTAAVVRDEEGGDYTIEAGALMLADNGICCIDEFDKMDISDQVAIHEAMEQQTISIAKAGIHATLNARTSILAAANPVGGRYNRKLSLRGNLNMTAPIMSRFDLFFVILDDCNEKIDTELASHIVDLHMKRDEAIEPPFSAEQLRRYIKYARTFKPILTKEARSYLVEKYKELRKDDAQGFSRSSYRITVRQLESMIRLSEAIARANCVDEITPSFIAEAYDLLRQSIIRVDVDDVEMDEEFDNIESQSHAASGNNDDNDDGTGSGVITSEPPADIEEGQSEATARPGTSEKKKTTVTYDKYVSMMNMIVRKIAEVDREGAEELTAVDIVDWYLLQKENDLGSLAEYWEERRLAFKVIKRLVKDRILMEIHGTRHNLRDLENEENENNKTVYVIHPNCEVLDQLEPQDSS
T5 sequence (P24279 whole entry): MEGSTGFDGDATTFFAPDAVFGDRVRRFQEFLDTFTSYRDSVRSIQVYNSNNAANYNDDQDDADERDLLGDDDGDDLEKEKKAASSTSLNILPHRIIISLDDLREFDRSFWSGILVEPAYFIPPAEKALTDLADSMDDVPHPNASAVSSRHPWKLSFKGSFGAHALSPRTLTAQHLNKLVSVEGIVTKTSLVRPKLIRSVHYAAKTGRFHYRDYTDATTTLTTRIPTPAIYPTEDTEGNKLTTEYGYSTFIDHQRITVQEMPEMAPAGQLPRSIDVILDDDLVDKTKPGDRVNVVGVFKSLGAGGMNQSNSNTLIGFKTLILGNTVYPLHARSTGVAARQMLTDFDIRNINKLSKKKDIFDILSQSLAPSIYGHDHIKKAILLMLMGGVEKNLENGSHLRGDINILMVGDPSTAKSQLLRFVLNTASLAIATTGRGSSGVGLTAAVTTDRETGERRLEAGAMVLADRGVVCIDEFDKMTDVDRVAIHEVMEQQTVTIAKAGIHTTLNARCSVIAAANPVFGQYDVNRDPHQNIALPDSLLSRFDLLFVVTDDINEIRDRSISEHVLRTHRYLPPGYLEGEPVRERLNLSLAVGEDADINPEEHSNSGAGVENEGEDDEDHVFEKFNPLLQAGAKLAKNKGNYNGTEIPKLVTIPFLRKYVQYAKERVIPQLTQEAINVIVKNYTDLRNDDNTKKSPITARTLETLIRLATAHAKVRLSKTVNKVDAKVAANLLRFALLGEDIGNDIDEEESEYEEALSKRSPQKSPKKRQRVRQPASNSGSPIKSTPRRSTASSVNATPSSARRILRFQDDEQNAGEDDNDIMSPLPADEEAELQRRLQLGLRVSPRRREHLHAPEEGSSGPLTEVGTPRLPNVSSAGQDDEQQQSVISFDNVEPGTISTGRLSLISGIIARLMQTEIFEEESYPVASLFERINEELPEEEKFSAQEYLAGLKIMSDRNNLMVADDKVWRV
T3 sequence (P53091 whole entry, one chain of several): as the sequence (P53091 whole entry) above
T2 sequence (P53091 whole entry, one chain of several): as the sequence (P53091 whole entry) above

B1: Cdt1 (natural protein, S. cerevisiae, UniProt P47112 1-604, looked up)
chain: MSGTANSRRKEVLRVPVIDLNRVSDEEQLLPVVRAILLQHDTFLLKNYANKAVLDALLAGLTTKDLPDTSQGFDANFTGTLPLEDDVWLEQYIFDTDPQLRFDRKCRNESLCSIYSRLFKLGLFFAQLCVKSVVSSAELQDCISTSHYATKLTRYFNDNGSTHDGADAGATVLPTGDDFQYLFERDYVTFLPTGVLTIFPCAKAIRYKPSTMATTDNSWVSIDEPDCLLFHTGTLLARWSQGMHTTSPLQIDPRANIVSLTIWPPLTTPISSKGEGTIANHLLEQQIKAFPKVAQQYYPRELSILRLQDAMKFVKELFTVCETVLSLNALSRSTGVPPELHVLLPQISSMMKRKIVQDDILKLLTIWSDAYVVELNSRGELTMNLPKRDNLTTLTNKSRTLAFVERAESWYQQVIASKDEIMTDVPAFKINKRRSSSNSKTVLSSKVQTKSSNANALNNSRYLANSKENFMYKEKMPDSQANLMDRLRERERRSAALLSQRQKRYQQFLAMKMTQVFDILFSLTRGQPYTETYLSSLIVDSLQDSNNPIGTKEASEILAGLQGILPMDISVHQVDGGLKVYRWNSLDKNRFSKLLQIHKSKQQD
notes: Cdt1, S. cerevisiae; also called Cdt1 WT; wild-type Cdt1; source: recombinant, purified
Take B1: the binding result in test [1] is given as “binds”.

B2: Cdt1 within purified Cdt1–MCM complexes (natural protein, S. cerevisiae, UniProt P47112 1-604, looked up)
chain: B1 chain
notes: also called Cdt1 (in MCM-GFP,FLAG–Cdt1 complexes and in the Cdt1–MCM complex used for electron microscopy); source: purified Cdt1-MCM complex
As for B2, the binding result in test [2] and in test [3] was “binds” in each case.

B3: Cdt1 fragment 495–604 fused to His-SUMO (domain or fragment, S. cerevisiae, UniProt P47112 495-604, looked up)
chain: AALLSQRQKRYQQFLAMKMTQVFDILFSLTRGQPYTETYLSSLIVDSLQDSNNPIGTKEASEILAGLQGILPMDISVHQVDGGLKVYRWNSLDKNRFSKLLQIHKSKQQD
notes: assigned by the order of description; The crystallised protein had the tag removed; also called CTD; source: His-SUMO fusion; E. coli is told for the crystallised fragment of the same limits
Regarding B3, the binding result in test [4] and in test [5] was “binds” throughout.

B4: Cdt1-MC fused to His-SUMO (domain or fragment, S. cerevisiae, UniProt P47112 272-604, looked up)
chain: SKGEGTIANHLLEQQIKAFPKVAQQYYPRELSILRLQDAMKFVKELFTVCETVLSLNALSRSTGVPPELHVLLPQISSMMKRKIVQDDILKLLTIWSDAYVVELNSRGELTMNLPKRDNLTTLTNKSRTLAFVERAESWYQQVIASKDEIMTDVPAFKINKRRSSSNSKTVLSSKVQTKSSNANALNNSRYLANSKENFMYKEKMPDSQANLMDRLRERERRSAALLSQRQKRYQQFLAMKMTQVFDILFSLTRGQPYTETYLSSLIVDSLQDSNNPIGTKEASEILAGLQGILPMDISVHQVDGGLKVYRWNSLDKNRFSKLLQIHKSKQQD
notes: source: His-SUMO fusion
With B4, the binding result in test [4] and in test [5] was “binds” in each case.

B5: Cdt1 fragment 271–496 fused to His-SUMO (domain or fragment, S. cerevisiae, UniProt P47112 271-496, looked up)
chain: SSKGEGTIANHLLEQQIKAFPKVAQQYYPRELSILRLQDAMKFVKELFTVCETVLSLNALSRSTGVPPELHVLLPQISSMMKRKIVQDDILKLLTIWSDAYVVELNSRGELTMNLPKRDNLTTLTNKSRTLAFVERAESWYQQVIASKDEIMTDVPAFKINKRRSSSNSKTVLSSKVQTKSSNANALNNSRYLANSKENFMYKEKMPDSQANLMDRLRERERRSAA
notes: source: His-SUMO fusion
In the case of B5, the binding result in test [4] and in test [5] was “binds” in each case.

B6: Mcm7 (natural protein, budding yeast, UniProt P38132 1-845, looked up)
chain: MSAALPSIQLPVDYNNLFNEITDFLVTFKQDTLSSDATRNENEDENLDAENIEQHLLEKGPKYMAMLQKVANRELNSVIIDLDDILQYQNEKFLQGTQADDLVSAIQQNANHFTELFCRAIDNNMPLPTKEIDYKDDVLDVILNQRRLRNERMLSDRTNEIRSENLMDTTMDPPSSMNDALREVVEDETELFPPNLTRRYFLYFKPLSQNCARRYRKKAISSKPLSVRQIKGDFLGQLITVRGIITRVSDVKPAVEVIAYTCDQCGYEVFQEVNSRTFTPLSECTSEECSQNQTKGQLFMSTRASKFSAFQECKIQELSQQVPVGHIPRSLNIHVNGTLVRSLSPGDIVDVTGIFLPAPYTGFKALKAGLLTETYLEAQFVRQHKKKFASFSLTSDVEERVMELITSGDVYNRLAKSIAPEIYGNLDVKKALLLLLVGGVDKRVGDGMKIRGDINVCLMGDPGVAKSQLLKAICKISPRGVYTTGKGSSGVGLTAAVMKDPVTDEMILEGGALVLADNGICCIDEFDKMDESDRTAIHEVMEQQTISISKAGINTTLNARTSILAAANPLYGRYNPRLSPLDNINLPAALLSRFDILFLMLDIPSRDDDEKLAEHVTYVHMHNKQPDLDFTPVEPSKMREYIAYAKTKRPVMSEAVNDYVVQAYIRLRQDSKREMDSKFSFGQATPRTLLGIIRLSQALAKLRLADMVDIDDVEEALRLVRVSKESLYQETNKSKEDESPTTKIFTIIKKMLQETGKNTLSYENIVKTVRLRGFTMLQLSNCIQEYSYLNVWHLINEGNTLKFVDDGTMDTDQEDSLVSTPKLAPQTTASANVSAQDSDIDLQDA
notes: Mcm7, subunit of the budding yeast MCM (Mcm2-7), expressed as an individual subunit; source: E. coli, purified
For B6, the binding result in test [6] and in test [7] was “binds” throughout.
